Earlier results, collected in publication PMC4660202.

Biological target: IZUMO1 ECD (Mus musculus) (UniProt Q9D9J7)
Chain of UniProt Q9D9J7 (Q9D9J7 22-319): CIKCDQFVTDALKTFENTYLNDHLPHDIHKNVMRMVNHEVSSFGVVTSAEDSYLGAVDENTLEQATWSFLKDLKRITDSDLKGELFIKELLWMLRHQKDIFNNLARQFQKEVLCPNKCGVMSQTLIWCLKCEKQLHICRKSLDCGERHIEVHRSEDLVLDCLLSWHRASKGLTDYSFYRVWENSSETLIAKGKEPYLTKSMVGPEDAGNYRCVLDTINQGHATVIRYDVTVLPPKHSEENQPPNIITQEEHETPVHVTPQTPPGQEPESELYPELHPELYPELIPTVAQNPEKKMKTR

Kd: 12.3 µM
Substance: JUNO (from UniProt Q9EQF4)
